Laboratory results reported in patent publication US20100015126A1, “Methods of Binding of Cross-Beta Structures By Chaperones” (priority 2006, published 2010).

Assays:
[1] = target: T1, recombinant human HSP90beta (Homo sapiens, UniProt P08238); experiment: Competition ELISA: HSP90 binding under influence of crossbeta binding compounds and geldanamycin; settings: 20 μg/ml HSP90, geldanamycin 10 μM; for Binding of HSP90 to coated Aβ25-35 under influence of compound: sRAGE 79 μg/ml, HSA 10 μM
T1 construct: purchased Dr. S. Rüdiger, Cellular Protein Chemistry, Utrecht University
T1 sequence (P08238 whole entry): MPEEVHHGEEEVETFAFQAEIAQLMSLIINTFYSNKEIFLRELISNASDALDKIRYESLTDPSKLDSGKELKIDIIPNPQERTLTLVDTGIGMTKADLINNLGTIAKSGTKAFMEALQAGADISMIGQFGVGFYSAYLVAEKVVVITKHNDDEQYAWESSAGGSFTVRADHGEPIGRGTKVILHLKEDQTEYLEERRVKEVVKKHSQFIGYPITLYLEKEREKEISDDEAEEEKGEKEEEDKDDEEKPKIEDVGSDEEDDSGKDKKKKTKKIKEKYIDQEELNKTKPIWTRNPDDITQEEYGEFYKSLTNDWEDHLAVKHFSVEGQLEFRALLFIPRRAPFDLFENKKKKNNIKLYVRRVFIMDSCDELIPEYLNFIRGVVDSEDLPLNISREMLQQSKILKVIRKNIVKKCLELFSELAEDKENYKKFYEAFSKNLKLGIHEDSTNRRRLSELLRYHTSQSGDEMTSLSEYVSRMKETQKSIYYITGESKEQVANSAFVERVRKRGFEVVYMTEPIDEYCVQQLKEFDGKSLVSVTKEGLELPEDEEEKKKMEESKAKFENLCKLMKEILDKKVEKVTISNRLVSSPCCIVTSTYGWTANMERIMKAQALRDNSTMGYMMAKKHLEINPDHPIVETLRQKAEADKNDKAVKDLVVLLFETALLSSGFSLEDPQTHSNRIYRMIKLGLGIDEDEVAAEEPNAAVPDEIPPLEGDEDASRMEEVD
Protocol: Binding of chaperones to immobilized (misfolded) protein ligands was determined using an enzyme linked immuno sorbent assay (ELISA) approach. For this purpose 50 μl/well of potential ligands at indicated concentrations or coat buffer only for control and background measurement purposes, were coated overnight at 4° C. or coated for 1 h at room temperature, with motion, in 50 mM NaHCO3 pH 9.6 (coat buffer). In general, ligands were coated at 5 μg/ml, unless stated otherwise. […] Native haemoglobin (Sigma-Aldrich, H7379), albumin, IgIV Gammagard and ovalbumin controls were prepared from lyophilized stocks. The controls were prepared by dissolving lyophilized proteins at 1 mg/ml in PBS upon resuspending by pipetting, followed by a 30 minutes period at the roller device, at room temperature. The protein solutions were centrifuged for 10 minutes at 16,000*g and diluted in coat buffer. […] Plates were washed three times and incubated in triplicate with indicated chaperone dilution series, at 50 μl/well, for 1 h at room temperature, with constant motion. For HSP90, 5 mM DTT is incorporated in the binding buffer (PBS/0.1% Tween20) to avoid unwanted disulfide bond formation of the HSP90. […] After four wash cycles, secondary antibodies were added to the wells when required, 50 μl/well, for 45′ at room temperature, with motion. RAMPO and SWARPO were used at 3000 times dilution. […] In a second experiment with more immobilized misfolded proteins and controls, the detection of bound HSP90 with the mix of two anti-HSP90 antibodies was achieved by mixing 1:1500 SWARPO with 1:3000 RAMPO. After 5 washes with wash buffer followed by two washes with PBS, binding of antibodies was assessed. […] The reaction was stopped after 5 minutes with 1% H2SO4 in H2O. Plates were read at 450 nm. Triplicates were averaged and standard deviations calculated. Background signals obtained with buffer-coated wells were subtracted (binding of primary antibody to empty wells), as well as background signals obtained with ligand-coated wells in which the chaperones were omitted (binding of primary and secondary antibody to coated ligands). Subsequently, sub-optimal concentrations of chaperones for binding to misfolded protein ligands are determined, and these concentrations are used for inhibition studies.

[2] = target: T1, recombinant human HSP90beta; experiment: ELISA: binding of HSP90 to immobilized (misfolded) protein ligands; settings: 5 mM DTT in binding buffer
Protocol: Recombinant human HSP90beta was bought from Dr. S. Rüdiger (Cellular Protein Chemistry, Department of Chemistry, Faculty of Science, Utrecht University). HSP90beta eluted from an anion exchange column was supplied in 35 mM Bis-Tris/25mM Tris, 5 mM DTT, approximately 385 mM NaCl, approximately pH 9.0. The HSP90beta concentration was 5.0 μM (450 μg/ml with a MW of 90.000 Da; extinction coefficient of 53740 l/(mol*cm)). The supplied frozen stock is kept at −80° C. Before use, the stock is quickly thawed almost completely in a 37° C. water bath, and kept at wet ice. Before use, the HSP90beta solution is centrifuged for 5 minutes at 16,000*g at 4° C. During dilution of HSP90beta solution, 5 mM DTT should be incorporated in the dilution buffer, to keep free Cys residues. Thawed HSP90beta was aliquoted and snap frozen in liquid nitrogen before re-storage at −80° C.
Binding of chaperones to immobilized (misfolded) protein ligands was determined using an enzyme linked immuno sorbent assay (ELISA) approach. For this purpose 50 μl/well of potential ligands at indicated concentrations or coat buffer only for control and background measurement purposes, were coated overnight at 4° C. or coated for 1 h at room temperature, with motion, in 50 mM NaHCO3 pH 9.6 (coat buffer). In general, ligands were coated at 5 μg/ml, unless stated otherwise. For example, BiP binding peptides 6BB# and oxLDL were coated at 50 μg/ml. Native haemoglobin (Sigma-Aldrich, H7379), albumin, IgIV Gammagard and ovalbumin controls were prepared from lyophilized stocks. The controls were prepared by dissolving lyophilized proteins at 1 mg/ml in PBS upon resuspending by pipetting, followed by a 30 minutes period at the roller device, at room temperature. The protein solutions were centrifuged for 10 minutes at 16,000*g and diluted in coat buffer. After coating the plates were washed at least three times with 50 mM Tris-HCl pH 7.3, 150 mM NaCl, 0.1% v/v Tween20, and blocked with Blocking reagent (Roche Diagnostics, Almere, The Netherlands; 11112589001), for 1 h at room temperature, with motion. Plates were washed three times and incubated in triplicate with indicated chaperone dilution series, at 50 μl/well, for 1 h at room temperature, with constant motion. For HSP90, 5 mM DTT is incorporated in the binding buffer (PBS/0.1% Tween20) to avoid unwanted disulfide bond formation of the HSP90. Plates were washed three times and incubated with anti-FLAG antibody (mouse antibody, M2, peroxidase conjugate; Sigma, A-8592) for BiP-FLAG-His, anti-His-tag antibody (Mouse Monoclonal Antibody, Cat. No. 70796, Novagen [0.2 mg/ml]) for HSP60, a 1:1 mix of 500-fold diluted anti-HSP90beta antibodies (Stressgen, SPA-643 [mouse monoclonal IgM], SPA-646 [rabbit polyclonal]) for HSP90 and an anti-DnaK antibody (Stressgen, 023SPA-880D [mouse monoclonal antibody]) for DnaK. After four wash cycles, secondary antibodies were added to the wells when required, 50 μl/well, for 45′ at room temperature, with motion. RAMPO and SWARPO were used at 3000 times dilution. […] In a second experiment with more immobilized misfolded proteins and controls, the detection of bound HSP90 with the mix of two anti-HSP90 antibodies was achieved by mixing 1:1500 SWARPO with 1:3000 RAMPO. After 5 washes with wash buffer followed by two washes with PBS, binding of antibodies was assessed. […] Plates were read at 450 nm. Triplicates were averaged and standard deviations calculated. […]

Compound | Binding of HSP90 to coated HbAGE under influence of compound [1] | Binding of HSP90 to coated Aβ25-35 under influence of compound [1] | Binding of concentration series of HSP90 to coated ligand [2]
Nc1c(/N=N/c2ccc(-c3ccc(/N=N/c4cc(S(=O)(=O)O)c5ccccc5c4N)cc3)cc2)cc(S(=O)(=O)O)c2ccccc12 [Congo red] | inhibited | stimulatory activity | –
Cc1ccc2c(c1)sc(-c1ccc(N(C)C)cc1)[n+]2C.[Cl-] [ThT, Thioflavin T] | had no influence | stimulatory activity | –
AGEYYAAL [6BB7] | – | – | little binding
GSNKGAIIGLM [6BB6, Human Aβ (25-35)] | – | – | has been established
Hb: non-modified human haemoglobin control | – | – | did not bind
HbAGE: human haemoglobin glycated with glucose-6-phosphate for 75 weeks | – | – | has been established
KLVFFAE [6BB12, Human Aβ16-22] | – | – | did not bind
